Results published in publication PMC11109196 (Nature Communications, 2024).

Legend:
MW959 gp120 = target: T1, MW959 gp120 (HIV-1 subtype C, 93MW959 (isolate 959 …, strain)); experiment: flow cytometry on cells; blocking format: HmAb64 added to biotinylated gp120 in the staining of primary human CD4+ T cells; loss of gp120 staining read out (2, 4, 8 ug HmAb64 with 2 ug ADA gp120 in panel b); conditions: both partners purified
T1 construct: also called MW959 (C)

CM244 gp120 = target: T2, CM244 gp120 (HIV-1 isolate CM244 (CRF01_AE; printed …, UniProt Q4QX31, strain); experiment: as above; conditions: both partners purified
T2 construct: also called CM244 (AE); CM224

AD8 gp120 = target: T3, AD8 gp120 (HIV-1 subtype B, AD8, UniProt O40222, strain); experiment: as above; conditions: both partners purified
T3 construct: also called AD8 (B)

SF162 gp120 = target: T4, SF162 gp120 (HIV-1 (SF162), UniProt P19550); experiment: as above; conditions: both partners purified
T4 construct: also called SF162 (B)

[1] = target: gp120 A2 (clade A, 92UG037.8) (HIV-1 isolate 92UG037.8 (clade A), UniProt Q70200, strain); experiment: ELISA; HmAb64 on gp120, gp120-Core or their D368R mutant protein, as previously described; conditions: both partners purified
[2] = target: gp120 Czm (clade C, 96ZM652) (HIV-1 subtype C, named 96ZM652; entry …, strain); experiment: as above; conditions: both partners purified
[3] = target: T5, wild-type gp120 Env protein, HIV-1 isolate JR-FL (HIV-1 isolate JR-FL, UniProt Q75760, strain); experiment: as above; conditions: both partners purified
T5 construct: also called JR-FL gp120

[4] = target: T6, wild-type gp120 Env protein, HIV-1 isolate YU2 (HIV-1 isolate YU2, UniProt P35961); experiment: as above; conditions: both partners purified
T6 construct: also called YU2 gp120

[5] = target: biotinylated gp120 of HIV-1 SF162 (HIV-1 isolate SF162, UniProt P19550, strain); experiment: flow cytometry on cells; HmAb64 added to biotinylated gp120 and read by the loss of gp120 staining of primary CD4+ T cells; conditions: both partners purified
[6] = target: T7, biotinylated gp120 of HIV-1 CM244 (HIV-1 isolate CM244 (CRF01_AE; printed …, UniProt Q4QX31, strain); experiment: as above; conditions: both partners purified
T7 construct: also called CM224 (as printed in the methods)

[7] = target: T8, HIV-1 SF162 Env on infected human CD4+ T cells (HIV-1 isolate SF162, UniProt P19550, strain); experiment: flow cytometry on cells; primary human CD4+ T cells infected with HIV SF162 for 3 days, stained with HmAb64 (2 ug), goat anti-human-PE; conditions: one partner purified
T8 construct: also called HIV-1 SF162 infected CD4+ T cells; source: primary human CD4+ T cells infected with HIV SF162, on the cell surface

A244 gp120 = A244 gp120 (HIV-1 isolate A244); experiment: SPR; Biacore 3000, CM4 or CM5 chip; gp120 or BG505-SOSIP immobilised by amine coupling to about 750 RU; HBS pH 7.4, 3 mM EDTA, 0.005% Tween-20, 0.05% carboxymethyl-dextran; 25 ul/min, 25 C; conditions: both partners purified

Measured: binding result

B1: HmAb64 (antibody, V domains shown)
VH: QVQLVQSGAEVKKPGASVKVSCKASGYTFTSYDITWVRQAPGQGLEWMGWISAYNGDTNYAQRLQGRVTMTTDTSTSTAYMELRSLRSDDTAVYYCARAKHTVLVTAMRWFDPWGQGTLVTVSS
VL: DIQMTQSPSSLSASVGDRVTITCRASQSISNYLNWYQQKPGKAPKLLISATSSLQSGVPSRFSGSGSGTDFTLTISSLQPDDFATYYCQQSYSTPWTFGQGTKLEIK
notes: also called HmAb64 mAb; source: Freestyle 293F cells, transfected, purified (Protein A HP columns)
binds: MW959 gp120 | CM244 gp120 | AD8 gp120 | SF162 gp120

B2: HmAb64 (antibody, V domains shown)
VH: QVQLVQSGAEVKKPGASVKVSCKASGYTFTSYDITWVRQAPGQGLEWMGWISAYNGDTNYAQRLQGRVTMTTDTSTSTAYMELRSLRSDDTAVYYCARAKHTVLVTAMRWFDPWGQGTLVTVSS
VL: DIQMTQSPSSLSASVGDRVTITCRASQSISNYLNWYQQKPGKAPKLLISATSSLQSGVPSRFSGSGSGTDFTLTISSLQPDDFATYYCQQSYSTPWTFGQGTKLEIK
notes: also called human IgG (HmAb64); clone #64; source: Freestyle 293F cells, transfected (mAb64-HC/pJW4303 and mAb64-KC/pJW4303), purified from supernatant (Protein A)
binds: [1] | [2] | [3] | [4] | [5] | [6] | [7] | A244 gp120
